Reference: paper PMC8692352 (2023)

T1: plasminogen (Homo sapiens, UniProt P00747)
T1 chain: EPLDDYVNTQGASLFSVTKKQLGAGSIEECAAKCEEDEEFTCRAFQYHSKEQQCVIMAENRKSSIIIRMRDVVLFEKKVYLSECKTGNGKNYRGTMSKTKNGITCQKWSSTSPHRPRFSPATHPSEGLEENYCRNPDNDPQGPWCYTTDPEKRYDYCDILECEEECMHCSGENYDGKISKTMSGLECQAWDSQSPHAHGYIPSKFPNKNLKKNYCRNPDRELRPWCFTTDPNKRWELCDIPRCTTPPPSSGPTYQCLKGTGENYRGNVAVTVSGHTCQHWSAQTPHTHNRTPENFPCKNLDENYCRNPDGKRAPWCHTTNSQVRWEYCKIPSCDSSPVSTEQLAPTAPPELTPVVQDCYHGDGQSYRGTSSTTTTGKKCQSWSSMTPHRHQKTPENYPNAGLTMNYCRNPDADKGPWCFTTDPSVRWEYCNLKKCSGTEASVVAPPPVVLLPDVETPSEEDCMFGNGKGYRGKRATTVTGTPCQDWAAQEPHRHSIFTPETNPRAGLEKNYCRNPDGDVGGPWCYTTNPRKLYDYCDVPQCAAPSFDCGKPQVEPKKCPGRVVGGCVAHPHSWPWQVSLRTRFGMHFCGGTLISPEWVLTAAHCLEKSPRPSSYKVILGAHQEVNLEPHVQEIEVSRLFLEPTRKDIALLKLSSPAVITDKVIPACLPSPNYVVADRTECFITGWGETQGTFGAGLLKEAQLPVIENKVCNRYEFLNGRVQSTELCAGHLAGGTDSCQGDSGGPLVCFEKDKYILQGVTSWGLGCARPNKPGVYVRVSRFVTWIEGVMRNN


Biological target: T1, plasminogen
Test: SPR

| Binder | Kd [nM] |
| --- | --- |
| hemoglobin A (protein) chain 1: not shown chain 2: not shown | 3600 |
| β-globin chain (protein) not shown | 4000 |

Binders with a lower Kd, results first:

| Kd [nM] | Binder |
| --- | --- |
| 48 | tPA (protein) SYQVICRDEKTQMIYQQHQSWLRPVLRSNRVEYCWCNSGRAQCHSVPVKSCSEPRCFNGGTCQQALYFSDFVCQCPEGFAGKCCEIDTRATCYEDQGISYRGTWSTAESGAECTNWNSSALAQKPYSGRRPDAIRLGLGNHNYCRNPDRDSKPWCYVFKAGKYSSEFCSTPACSEGNSDCYFGNGSAYRGTHSLTESGASCLPWNSMILIGKVYTAQNPSAQALGLGKHNYCRNPDGDAKPWCHVLKNRRLTWEYCDVPSCSTCGLRQYSQPQFRIKGGLFADIASHPWQAAIFAKHRRSPGERFLCGGILISSCWILSAAHCFQERFPPHHLTVILGRTYRVVPGEEEQKFEVEKYIVHKEFDDDTYDNDIALLQLKSDSSRCAQESSVVRTVCLPPADLQLPDWTECELSGYGKHEALSPFYSERLKEAHVRLYPSSRCTSQHLLNRTVTDNMLCAGDTRSGGPQANLHDACQGDSGGPLVCLNDGRMTLVGIISWGLGCGQKDVPGVYTKVTNYLDWIRDNMRP |
| 93 | α-globin chain (protein) not shown |
